# Measured values: the NTF2 design screens of Basanta et al. (2020)
# Assay: protease stability score; higher = more stable; yeast display proteolysis, trypsin and chymotrypsin;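 note: log10 excess protease needed over predicted unfolded state with 0 meaning unfolded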
row,Sequence,protease stability score
1,DERKEAKEFADRIVKIIQTNNQDELEKNADPDVRVDVGDKQVHGREQLQDELKKLRTRADHVEVKIQDFKVHNGSVTVQMTIVYVVNGQKHKDERVYHAEIHNGRVKLKSARQK,0.767
2,DERKEAKKWLDRLNKALHTGDSDKLKDMVDKDVRFNIGDKEIHGREQYVKHVQTRAEQIDDVQIHIHSIHVSGDEIVLTYHVVYNVNGRQESDVFNLVMVKNNGRLVVRSVTKG,-0.012
3,DERKEMQKHFDRFVTALRENNPDQLREMADPDAKVRIGDKTLHGRDEVVHYLQLLAERADHISFDVKQFDVHNGVAHVDLRMRFTVNGQERHKDMIFVLNEVNGTVVIVQVQDK,1.72
4,DERKIEHAQRILKHNDKHKLQNLFDKNARLEIGDTTFTGRERAQHWARRLYQQADHFEVKSVDNNPNDLTVELVVRVNGHDIHFQFRFRIKNGRITSFQVDYTDEDDERKMKDVDR,0.369
5,DERKKDRMRELFEAWKTGDEHTAEKMLDKDAKIDVGDHRVQGREQHSTDVRRRKEEIRLRVDIDSIHIHNGRVSVEYKEENNHNGKPDTKNARVDFNMHNGRVQEQKQSNES,-0.35
6,DERKKVEDVARHWVEAFKEGDKDRLTSLMDENVTVKVGDKQVHGSEELLEDMTNKIKQHDHVDAKILSVTFHGDEAEVDVEVRLNHNGKNRHDRYVMVMRVHNGTLRLKKLTQK,1.24
7,DERKLATRHAHTLDRILRTGDEERYVDMADKDVKFDVGDRKYKGRHELHKLAKEEQKKADHLQLNYKHITAHNGRVDMDVVVVQVHNGQKRQTNVRYSEEIHNGNVIVQSATEK,-0.355
8,DERKQENVAKRVIRALQTGDSDMMERLVDPNAEVRYGDKRLRGREELREFVTTFKRAVDHLSFDRFEVHNGRAVANAKLNVNGRVMHVRIIVNFHDGRVTHIQIDVTDESQATRARS,0.643
9,DERKQHEVAEKVAKNFVDGNPSEFVKNMDPNAEVVIGDKTVTGREDIHRLVKDFHDKIDHIELKDLKVKNGRIEIIFQADNNGHKRQYRADVKANNGRMTTFEVREQ,0.927
10,DERKRAEKALNEWQRMWKYGNEEDFQKLADENVHFKYGDKTYRGREKMRKWVKEVLDSVDHVEVRIVSLHVRGDKITVRIRIYMEHNGRRTSFEYTMQLVDNNGHIVIVRFEQN,0.203
11,DERKRAKKALDDLKHAMHSNDPDKQKELMDENVELKYGDRHVNGREQANQHAEEHFERADHLDQKIQTWDIHNGKVSVTFTMTIEFNGRRENIQVQVTFDTVDGRLRIRTAREK,0.525
12,DERKRATEIAEQIQTILRTGNPKDMRRMADEDVKVDVGDQRIHGRDQLATTLHKLRKRADHIDIKIVSVNAQGDKFVVRQRVRETVNGRVRTFEFVMVLRVHNGREVVKSRHQS,0.225
13,DERKSAENFFHTLVKVMETGDEDKARKMFDENADAEVGDTEYHGREQLSKYMMTLVKNIDHIRLDLRDMHIEGDKIDIHADVEYRVNGQRTTNKLTVDVEIDNGRNKAQDIKFK,0.214
14,DERKVDVARNVAKAILTNDPDRAMSMVDKDVTVVIGDKEINGHEDFREHIEKQSKEAKLDMRSVDADNRGDKAVLTLDYQIDYNGKPMRDTQTIEVHVTNGRVKELRVRVDESLKRDLKS,-0.28
15,DERLADQVVELLHVMEDGDEKRVDQLIDKDVKFKVGDKDYHGDETARRRAKNLRDQMRIEYDLKDYRTNGDNAILNAEVRMNINGQPYSHHVKIVVRARNGKVKHLQMSFDEETQKKVDQ,0.909
16,DERLAKQVLTMMRNERTGNEHEVDKYVDPNARFQVGDQEIHGKEELRKEVSRRRNEMRIDFRVEDMKVHGDKVHLSFKNMKNHNGRPESFRATATVHVHNGTVKSVDIKTTK,-0.453
17,DERLEDKMRKFLEVLRTGDEKKLRDLADPNVRFDIGEKKYRGRDEAVREYKRMRDEIRFEIKIRSLEAQGNKVDVTFEMTYDHNGKPKHNVVKLVFEQHNGKLKQLKVKSDK,0.596
18,DERLHKQIERLFEQLNTGDEDKYVEYADPNARINVGDKNVHGRDQIRHMIRKENQEIRVEYEVKDIKASNGRARVDATVENEENGRPHTNRIDLVINVHNGRAKEIELRVPEDLLRTMKS,-0.131

row,Sequence,protease stability score
1,DERLKEQVKRLWEALKENDHDELSKLVDKDAHIVVGDKEVHGRENFMTEMATELSEIRIDYKRLHIDAQGDTADVEVDVEQEHNGQPRRDVKRVEFEYENGRLVKMNVQDNG,0.438
2,DERLLHEFQKNVENNNWDKLSELVDEDAKIKYGDKTITGRESLDRMFTQLKRQVDHVDIESVHIDGDKVHVDLRIRVNGHSVRFIMTAEFSNGRIKSMKIEVTSEEQQDHLNEQLS,1.19
3,DERLREQLNRFHKLLEKNNPEKLVEQLDPNAEFEVGDKQYHGREQIEDWQRRLAKRQRFSRDFKSIDASNGNVRATFRVVITHDGKPDDYLAVMHFQVKNGKFKRFVIKRNQ,0.291
4,DERMDDTLRRLVERGDFHKIAENADPNVRMQVGNKVFHGREEVRRAAERWQNQVDHYQVDSVRVHNGHVSAHVQATVNGQRIRFTIKIDVQGDKVQRMEIEFTSEEQKKLQDEAVE,1.41
5,DERMKKLAEQIVKARRTGDEKQQKELFDEDAHVQIGDKTVHGKENQIETMKKRRDEIRVEIRINSLSVNNGKADISLEQTDDKNGTPKTDVVRATVHATNGRVKEVRYKHDG,-0.156
6,DERNERVFHHFVEAISFNDPQQARRNADKDVKFDVGEKVLHGREEWDKQMEHNKKHMRQDMRVKEVSTSGDKVTARVEQEHNHNGKPSTRDVKMSVEINNGKIKSFRLTTVS,-0.129
7,DERNIERARKWWEALQENNPDQARKLMDKDVTFTYGDKTYHGREDIAKDIHRRLENMRVEIKSMTLEDHNGRVDAQVDLVVDVNGQPRQVTLDAKVNVENGRVKEFNVQFDEQLRHDIQK,0.132
8,DERNKKVLRQFMHAQMRGNPEKAKKLADPNAKFQVGDKTVHGMDEWVRQLDRKKKQIRFEVRVDSVRVHGDNVTMHVEYRATYNGKPYSDKVDYSARLHNGKITKLSAEMDPEFQRELDT,0.296
9,DERNKRRFDEFERARKTGDPDRMKELADPNAKLDVGNKTITGMDEIVRQLKHEQDKIEIDIKFDRITVQGNNLRAEYHEEYNVNGKPFHDKVVLEVQFDNGKIRELKLRVDPEKQDERRT,-0.003
10,DERNLHVANEFWKVLTDGDPRRLMELVDPNAKIQYGDKTITGREEIRKKAEKDTKKSRFEVQVQDIRVTGDTANIHAVFNEDHNGQPSQDFYVVTMAMNGDKIRFMIQRKSK,0.483
11,DERNLRVVKHFWHAVRTGDPEEVKRQADKHVRVRIGDKHIEGRETLAHEVREEKNQLENDIQIRDIKVQGDRVHMRVVVVFNIDGRPQSVQITVEAKAHNGKLQSMSQEVPEEVLHEIEK,0.021
12,DERNNEFAKHFIEVLNQGDWKRLNEMLDPNVKVEIGDTTIHGRENFSRNVKQDLDHLRQEFHITSMDASGNKVEVRADVINRDNGKPREFKMKMEIRFHNGRVKEIKLDHDG,1.53
13,DERNNKQADQFLRDMEKNDEHKLRKLADENVKFKIGDKVFRGWHDAVTEIATRIREMRVNVHRYDVKTHNGRVNLEIHQTAEYNGQPLNFSYIVIMEYQNGRLVRVNIRVSEEELKTMTQ,0.475
14,DERNQKEVADKMYTAFRHGDPRKINKLADKDVTARYGDKVVSGRDDMVRQIDEIRKSIDHMSITSIEVHNGKADATLRFVVNGRDLQMKLVIVIHNGKVKHLSVQFRDDEQKKVLER,-0.174
15,DERNQRNLEKMLKAQERGNPDLLEELVDKNVKIEVGDKSVHGREELHRQQDRRRKQATLRYDDLRMKVSGNKVRVDMKFQVNHDGKPEKATADATYEFDNGKLKHVSVRVRQ,-0.06
16,DERNREIVEEYFKAIKQGDEDRYKQMVDPNVHVEVGDRNYHGREHQARWMHRLRKHMRLVFNIRSIDVSGDKVKVKLDYEEEHNGEPRTNKMTVEFKFHNGKILKIKIQTRQ,2.08
17,DERNSELLKKVQEAWDHGDPRKLDEQMDPNAKVNVGDKNLHGKEQLRNTLEEDTRHSRVRVDYDSVTDHNGRVRASATFQDVINGKPVRDTFDFVAEVNNGKMKMLKVRVPEDNKRKLKR,0.022
18,DERQENNARKFFTAYLKGDEHKLTELMRDDVRLKIGDKEIHGRETALKTIHTLRRRQRIHIQVDNIEVDENHVEVHAKIEWEHNGQPDSQKVRIDIKFHNGRINYLQMDLRG,1.59
